Experimental data: patent publication US20240352477A1 (ACADEMIA SINICA, published 2024)

Tests used:
[1] = target: T1, HXK6-mCherry (Ubi:HXK6-mCherry) (rice, UniProt Q8LQ68 1-506); assay: co-IP with GFP-Trap from co-transfected rice protoplasts, immunoblot
T1 construct: Expressed transiently in rice protoplasts; not shown: mCherry reporter (pUbi:ccdB-mCherry vector)
Protocol: Samples were extracted from rice protoplasts in lysis buffer containing 150 mM NaCl, 0.5% NP4-0, 20 mM Tris-HCl (pH 7.5), and protease inhibitor (Roche) for 1 h at 4° C. and centrifuged at 13,000 rpm for 30 min at 4° C. Supernatants were transferred to new tubes and GFP- or RFP-conjugated proteins were pulled down with GFP-Trap®_MA beads or RFP-Trap®_MA beads. Precipitated proteins were subjected to immunoblot analysis using anti-RFP and anti-GFP antibodies.

HXK5-GFP (Ubi:HXK5-GFP) = target: T2, HXK5-GFP (Ubi:HXK5-GFP) (rice, UniProt Q5W676 1-507); assay: co-IP with RFP-Trap from co-transfected rice protoplasts, immunoblot
T2 construct: Expressed transiently in rice protoplasts; not shown: GFP reporter (pUbi:ccdB-GFP vector)
T2 sequence (Q5W676 whole entry): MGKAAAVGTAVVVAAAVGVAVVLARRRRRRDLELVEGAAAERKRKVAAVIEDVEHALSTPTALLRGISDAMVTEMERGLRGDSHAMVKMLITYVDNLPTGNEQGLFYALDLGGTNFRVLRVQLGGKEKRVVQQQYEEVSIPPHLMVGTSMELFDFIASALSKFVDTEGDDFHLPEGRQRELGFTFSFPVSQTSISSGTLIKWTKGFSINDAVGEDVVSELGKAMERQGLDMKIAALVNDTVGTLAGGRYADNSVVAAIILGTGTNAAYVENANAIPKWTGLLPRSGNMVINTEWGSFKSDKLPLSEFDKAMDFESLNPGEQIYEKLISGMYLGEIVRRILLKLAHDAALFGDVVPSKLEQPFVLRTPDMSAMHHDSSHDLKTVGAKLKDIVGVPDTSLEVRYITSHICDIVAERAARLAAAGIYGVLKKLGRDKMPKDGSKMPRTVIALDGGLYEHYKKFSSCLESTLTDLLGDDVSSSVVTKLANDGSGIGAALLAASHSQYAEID
Protocol: (§1) FIGS. 13a to 13b. CIPK15 and HXK5/6 interact and localize at mitochondria under aerobic and hypoxic conditions. (FIG. 13a) Rice protoplasts were co-transfected with Ubi:CIPK15-mCherry and Ubi:HXK5-GFP, Ubi:HX6-GFP or Ubi:GFP (as negative control), before being cultured in medium containing 400 mM glucose with shaking (aerobic) for 12 h. Then, total proteins were extracted and pulled down using RFP trap®. Anti-RFP and anti-GFP antibodies were used to detect co-immunoprecipitated (co-IP) CIPK15-mCherry and HXK5-GFP or GFP, respectively. (FIG. 13b) Rice protoplasts were transfected with Ubi:CIPK15-mCherry, Ubi:HXK5-mCherry or Ubi:HXK6-mCherry and stained with the mitochondrial marker MitoTracker® Green FM, before being examined under confocal microscopy. T: Transmission image. Scale bar=[…]. […]
(§2) To explore these latter interactions in vivo using co-IP assays, we co-transfected rice protoplasts with Ubi:CIPK15-mCherry and Ubi:HXK5-GFP, Ubi:HXK6-GFP or Ubi:GFP (negative control) constructs. […] Our anti-RFP antibodies detected CIPK15-mCherry proteins in all eluents of CIPK15-mCherry co-IP fractions, but anti-GFP antibodies detected HXK5-GFP and HXK6-GFP present in the CIPK15-mCherry complex (FIG. 13a).

HXK6-GFP (Ubi:HXK6-GFP) = target: T3, HXK6-GFP (Ubi:HXK6-GFP) (rice, UniProt Q8LQ68 1-506); assay: as above
T3 construct: Expressed transiently in rice protoplasts; also called Ubi:HX6-GFP; not shown: GFP reporter (pUbi:ccdB-GFP vector)
T3 sequence (Q8LQ68 whole entry): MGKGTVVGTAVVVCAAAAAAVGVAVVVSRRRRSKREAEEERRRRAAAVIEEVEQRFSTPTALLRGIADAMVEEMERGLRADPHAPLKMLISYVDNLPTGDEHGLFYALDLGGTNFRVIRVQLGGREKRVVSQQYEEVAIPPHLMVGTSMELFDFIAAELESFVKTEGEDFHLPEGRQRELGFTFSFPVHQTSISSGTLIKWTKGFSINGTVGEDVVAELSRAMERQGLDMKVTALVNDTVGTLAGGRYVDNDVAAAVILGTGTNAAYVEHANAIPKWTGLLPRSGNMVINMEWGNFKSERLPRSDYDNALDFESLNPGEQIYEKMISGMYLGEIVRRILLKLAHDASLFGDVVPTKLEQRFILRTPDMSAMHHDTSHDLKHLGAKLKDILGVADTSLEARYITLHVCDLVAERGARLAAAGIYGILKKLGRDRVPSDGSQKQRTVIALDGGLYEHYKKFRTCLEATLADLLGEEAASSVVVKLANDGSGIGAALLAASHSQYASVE
Protocol: as §1, §2

[2] = target: T4, HXK5-nYFP (CaMV35S:HXK5-nYFP) (rice, UniProt Q5W676 1-507); assay: bimolecular fluorescence complementation (BiFC) in rice protoplasts
T4 construct: BiFC construct in rice protoplasts; not shown: N-terminal half of YFP (nYFP, p35S:ccdB-nYFP vector)
T4 sequence (Q5W676 whole entry): as the sequence (Q5W676 whole entry) above
Protocol: (§3) FIGS. 3a to 3g. HXK6 and VDAC1 interact with CIPK15 on mitochondria and suppress CIPK15-regulated promoters. (FIG. 3a) BiFC assay in which rice protoplasts were co-transfected with CaWV35S:cYFP-CIPK15 or CaWV-nYFP (negative control) and CaMV35S:HXK5/6-nYFP or CaMV35S:cYFP (negative control). (FIG. 3b, FIG. 3c, FIG. 3f) Rice protoplasts were transfected with plasmids, cultured in medium containing 400 mM glucose with shaking for 12 h, and then examined under confocal microscopy. Scale bar=[…]. C: cytoplasm; Mt: mitochondria. (FIG. 3b) Rice protoplasts were co-transfected with Ubi:CIPK15-mTagBFP and Ubi:HXK6-mCherry and stained with the mitochondrial marker MitoTracker® Green FM. (FIG. 3c) Rice protoplasts were co-transfected with Ubi:CIPK15-mCherry and Ubi:GFP, Ubi:HXK6-GFP, or Ubi:HXK6(Ri) constructs. (FIG. 3d, FIG. 3g) Rice protoplasts were co-transfected with effector and reporter plasmids, cultured in medium contained 400 mM glucose with shaking, and assayed for luciferase activity. (FIG. 3e) Rice protoplasts were co-transfected with Ubi:VDAC1-GFP, Ubi:CIPK15-HA and Ubi:HXK6-GFP or Ubi:HXK6-mCherry, cultured in medium containing 400 mM glucose with shaking for 12 h, and total proteins were extracted and pulled down using GFP trap®. Anti-GFP, anti-HA and anti-mRFP antibodies were used to detect HXK6-GFP or VDAC1-GFP, CIPK15-HA, and HXK6-mCherry, respectively. […]

[3] = target: T5, HXK6-nYFP (CaMV35S:HXK6-nYFP) (rice, UniProt Q8LQ68 1-506); assay: as above
T5 construct: BiFC construct in rice protoplasts; not shown: N-terminal half of YFP (nYFP, p35S:ccdB-nYFP vector)
T5 sequence (Q8LQ68 whole entry): as the sequence (Q8LQ68 whole entry) above
Protocol: as §3

T1 sequence (Q8LQ68 whole entry): as above

B1: VDAC1-GFP (Ubi:VDAC1-GFP) (other, rice, UniProt Q6K548 2-274, looked up)
chain: VGPGLYPEIGKKARDLLYRDYQTDHKFTLTTYTSNGVAITATSTKKADLIFGEIQSQIKNKNITVDVKANSDSNVVTTVTVDELTPGLKSILSFAVPDQRSGKFELQYSHDYAGVSASIGLTASPVVNLSSVFGTKALAVGADVSLDTATGNLTKYNAGLSFSNDDLIASLNLNNKGDSLTASYYHIVNHSATAVGAELTHSFSSNENSLTFGTQHTLDPLTVVKARFNNSGKASALLQHEWRPKSVWTISAEVDTKAIDKSSKVGIAVALKP
notes: Expressed transiently in rice protoplasts and pulled down with GFP-Trap; not shown: GFP reporter (pUbi:ccdB-GFP vector)
B1: binds [1].

B2: CIPK15-mCherry (Ubi:CIPK15-mCherry) (enzyme)
chain: MESRGKILMERYELGRLLGKGTFGKVHYARNLESNQSVAIKMMDKQQILKVGLSEQIRREITTMRLVAHKNIVQLHEVMATRNKIYFVMEYVKGGELFEKVAKRGKLTEVVAHKYFQQLISAVDYCHSRGVYHRDLKPENLLLDENENLKVSDFGLSALSESKRQDGLLHTTCGTPAYVAPEVISKIGYDGAKSDIWSCGVILFVLVAGYLPFQGPNLMEMYRKIQHGEFRCPGWFSRKLQKLLYKIMDPNPSTRISIQKIKESTWFRKGPEENRILKERTLNENTTKNVAPVLGVRRKKNAHEDVKPMSVTNLNAFEIISFSKGFDLSGMFIVKEWRNEARFTSDKSASTIISKLEDVAKALNLRVRKKDNGVVKMQGRKEGRNGVLQFDIEIFEVTTSYHIIEMKQTSGDSLEYRQLLEEGIRPALKDIVLA
notes: Expressed transiently in rice protoplasts; not shown: mCherry reporter (pUbi:ccdB-mCherry vector)
B2: binds (HXK5-GFP (Ubi:HXK5-GFP)); binds (HXK6-GFP (Ubi:HXK6-GFP)).

B3: cYFP-CIPK15 (CaMV35S:cYFP-CIPK15) (enzyme)
chain: MESRGKILMERYELGRLLGKGTFGKVHYARNLESNQSVAIKMMDKQQILKVGLSEQIRREITTMRLVAHKNIVQLHEVMATRNKIYFVMEYVKGGELFEKVAKRGKLTEVVAHKYFQQLISAVDYCHSRGVYHRDLKPENLLLDENENLKVSDFGLSALSESKRQDGLLHTTCGTPAYVAPEVISKIGYDGAKSDIWSCGVILFVLVAGYLPFQGPNLMEMYRKIQHGEFRCPGWFSRKLQKLLYKIMDPNPSTRISIQKIKESTWFRKGPEENRILKERTLNENTTKNVAPVLGVRRKKNAHEDVKPMSVTNLNAFEIISFSKGFDLSGMFIVKEWRNEARFTSDKSASTIISKLEDVAKALNLRVRKKDNGVVKMQGRKEGRNGVLQFDIEIFEVTTSYHIIEMKQTSGDSLEYRQLLEEGIRPALKDIVLA
notes: BiFC construct in rice protoplasts; not shown: C-terminal half of YFP (cYFP, p35S:cYFP-ccdB vector)
B3: binds [2]; binds [3].
